Details: Saccharomyces cerevisiae (strain ATCC 204508 / S288c), pH 4.6, Thermal, CD, acetate 100 mM, reversible: yes; for ddG of mutation (higher = less stable) / heat capacity change of unfolding / unfolding free energy: 25 °C

Cytochrome c isoform 1 P82W, P00044, sequence (P00044 whole entry P82W, canonical isoform): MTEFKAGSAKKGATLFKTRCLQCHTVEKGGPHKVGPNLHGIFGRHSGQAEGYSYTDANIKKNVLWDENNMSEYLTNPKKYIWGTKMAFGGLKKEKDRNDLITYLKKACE
Cytochrome c isoform 1 P82V, P00044, sequence (P00044 whole entry P82V, canonical isoform): as the sequence (P00044 whole entry P82W, canonical isoform) above, with W82V counted along it
Cytochrome c isoform 1 P82Y, P00044, sequence (P00044 whole entry P82Y, canonical isoform): as the sequence (P00044 whole entry P82W, canonical isoform) above, with W82Y counted along it
Cytochrome c isoform 1 wild type, P00044, sequence (P00044 whole entry, canonical isoform): as the sequence (P00044 whole entry P82W, canonical isoform) above, with W82P counted along it
Cytochrome c isoform 1 P82R, P00044, sequence (P00044 whole entry P82R, canonical isoform): as the sequence (P00044 whole entry P82W, canonical isoform) above, with W82R counted along it
Cytochrome c isoform 1 P82S, P00044, sequence (P00044 whole entry P82S, canonical isoform): as the sequence (P00044 whole entry P82W, canonical isoform) above, with W82S counted along it
Cytochrome c isoform 1 P82G, P00044, sequence (P00044 whole entry P82G, canonical isoform): as the sequence (P00044 whole entry P82W, canonical isoform) above, with W82G counted along it
Cytochrome c isoform 1 P82L, P00044, sequence (P00044 whole entry P82L, canonical isoform): as the sequence (P00044 whole entry P82W, canonical isoform) above, with W82L counted along it

Substance | ddG of mutation (higher = less stable) (structure 1YCC) | heat capacity change of unfolding (structure 1YCC) | unfolding free energy (structure 1YCC) | Tm (structure 1YCC) | change of melting temperature, mutant - wild type (higher = more stable) (structure 1YCC) | heat capacity change of unfolding | unfolding free energy | Tm
Cytochrome c isoform 1 P82G, P00044 | 0.78 kcal/mol | 1.37 kcal/mol/K | 4.3 kcal/mol | 48.5 °C | -5 °C |  |  | 
Cytochrome c isoform 1 P82R, P00044 | 0.97 kcal/mol | 1.37 kcal/mol/K | 4.11 kcal/mol | 48.6 °C | -4.9 °C |  |  | 
Cytochrome c isoform 1 wild type, P00044 |  |  |  |  |  | 1.37 kcal/mol/K | 5.08 kcal/mol | 53.5 °C
Cytochrome c isoform 1 P82W, P00044 | 2.38 kcal/mol | 1.37 kcal/mol/K | 2.7 kcal/mol | 47 °C | -6.5 °C |  |  | 
Cytochrome c isoform 1 P82S, P00044 | 1.89 kcal/mol | 1.37 kcal/mol/K | 3.19 kcal/mol | 47.8 °C | -5.7 °C |  |  | 
Cytochrome c isoform 1 P82V, P00044 | 1.07 kcal/mol | 1.37 kcal/mol/K | 4.01 kcal/mol | 48.3 °C | -5.2 °C |  |  | 
Cytochrome c isoform 1 P82Y, P00044 | 2.07 kcal/mol | 1.37 kcal/mol/K | 3.01 kcal/mol | 46.7 °C | -6.8 °C |  |  | 
Cytochrome c isoform 1 P82L, P00044 |  |  |  | 48.6 °C | -4.9 °C |  |  | 

— FireProtDB (doi:10.1021/bi972279a)
